Data taken from patent US20260234255A1 (Genmab, published 2026).
Residue numbers refer to the chain shown, from its start.

Tests used:
human CD30 [1] = target: T1, human CD30 (human, UniProt P28908 19-595); test: flow cytometry, DEL cells
T1 construct: The same molecule is used for CD30 on HL/ALCL/NHL cell lines; also called huCD30; TNFRSF8
T1 sequence: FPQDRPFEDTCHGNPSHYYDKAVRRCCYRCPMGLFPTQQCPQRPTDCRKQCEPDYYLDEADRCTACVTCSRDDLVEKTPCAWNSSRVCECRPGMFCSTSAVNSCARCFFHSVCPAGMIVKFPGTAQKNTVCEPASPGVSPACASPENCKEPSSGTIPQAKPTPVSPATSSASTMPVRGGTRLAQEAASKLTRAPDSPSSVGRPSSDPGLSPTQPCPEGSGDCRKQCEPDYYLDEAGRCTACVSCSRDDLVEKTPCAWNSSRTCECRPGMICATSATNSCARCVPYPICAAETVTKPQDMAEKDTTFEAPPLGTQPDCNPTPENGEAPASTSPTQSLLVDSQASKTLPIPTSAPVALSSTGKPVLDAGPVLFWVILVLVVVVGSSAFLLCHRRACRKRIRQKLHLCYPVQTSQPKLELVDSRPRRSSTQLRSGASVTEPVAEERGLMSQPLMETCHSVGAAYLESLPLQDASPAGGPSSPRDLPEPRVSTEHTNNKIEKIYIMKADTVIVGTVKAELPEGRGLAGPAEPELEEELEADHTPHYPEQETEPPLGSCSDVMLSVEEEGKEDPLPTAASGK

human CD30 [2] = target: T1, human CD30; test: flow cytometry, KI-JK cells
human CD30 [3] = target: T1, human CD30; test: flow cytometry, HDLM-2 cells
Method: (§1) Binding of CD3×CD30 bispecific antibodies to two CD30-expressing human tumor cell lines SU-DHL-1 (ALCL; ATCC, cat. no. ACC 356) and HDLM-2 (HL; ATCC, cat. no. CRL-2965) was analyzed […] by flow cytometry.
(§2) Cells (3×10⁴ cells/well) were incubated in polystyrene 96-well round-bottom plates (Greiner bio-one, cat. no. 650180) with serial dilutions of antibodies (range 0.0046 to 10 μg/mL in 3-fold dilution steps) in 50 μL staining buffer at 4° C. for 30 min. After washing twice in staining buffer, cells were incubated with 50 μL secondary antibody at 4° C. for 30 min. […] Next, cells were washed twice in staining buffer, resuspended in 100 μL staining buffer supplemented with TO-PRO-3 iodide (Thermo Fisher Scientific; cat. no. T3605; 1:8000 dilution) and analyzed on a FACSCelesta flow cytometer (BD Biosciences, USA). Live cells were gated based on FSC/SSC and absence of TOPRO-3 staining. Binding curves were analyzed by non-linear regression of log-transformed data (sigmoidal dose-response with variable slope, four parameters) using GraphPad Prism V7.02 software (GraphPad Software, San Diego, CA, USA).

human CD30 [4] = target: T1, human CD30; test: flow cytometry, HDLM-2 cells
human CD30 [5] = target: T1, human CD30; test: flow cytometry, SU-DHL-1 cells
Method: as §1, §2

[6] = target: T2, cynomolgus monkey (Macaca fascicularis) CD30 (cynomolgus monkey, UniProt P28908 19-595 (human entry)); test: flow cytometry, Expi293F cells transfected with cynomolgus monkey CD30 (mfCD30)
T2 construct: also called mfCD30
T2 chain: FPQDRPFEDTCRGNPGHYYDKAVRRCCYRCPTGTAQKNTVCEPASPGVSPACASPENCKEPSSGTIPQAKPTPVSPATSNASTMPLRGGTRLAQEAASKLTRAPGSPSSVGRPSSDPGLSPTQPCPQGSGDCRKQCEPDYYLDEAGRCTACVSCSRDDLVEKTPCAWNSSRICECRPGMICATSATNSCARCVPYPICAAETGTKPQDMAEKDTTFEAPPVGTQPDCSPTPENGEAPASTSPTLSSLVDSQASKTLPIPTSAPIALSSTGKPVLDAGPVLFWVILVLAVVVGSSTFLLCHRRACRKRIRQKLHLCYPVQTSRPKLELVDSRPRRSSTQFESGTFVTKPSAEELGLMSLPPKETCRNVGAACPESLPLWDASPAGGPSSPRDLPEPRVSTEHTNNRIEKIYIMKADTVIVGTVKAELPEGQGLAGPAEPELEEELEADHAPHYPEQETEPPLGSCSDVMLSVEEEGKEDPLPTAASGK
Method: Cells (3×10⁴ cells/well) were incubated in polystyrene 96-well round-bottom plates (Greiner bio-one, cat. no. 650180) with serial dilutions of antibodies (ranging from 0.005 to 10 μg/mL in 3-fold dilution steps) in 100 μL staining buffer at 4° C. for 30 min. Experiments were performed in technical duplicate. After washing twice in staining buffer, cells were incubated in 50 μL secondary antibody at 4° C. for 30 min. As a secondary antibody, R-PE-conjugated goat-anti-human IgG (Jackson ImmunoResearch, UK; cat. no. 109⁻¹¹⁶-098) diluted 1:400 in staining buffer was used. Cells were washed twice in staining buffer, resuspended in 30 μL staining buffer containing 0.4% EDTA and analyzed on an iQue Screener (Intellicyt Corporation, USA). Binding curves were analyzed using non-linear regression (sigmoidal dose-response with variable slope) using GraphPad Prism V9.0.0 software (GraphPad Software, San Diego, CA, USA).

human CD30 [7] = target: T1, human CD30; test: flow cytometry, HH cells
Method: as §2

human CD30 [8] = target: T1, human CD30; test: flow cytometry, L-82 cells
human CD30 [9] = target: T1, human CD30; test: flow cytometry, L-540 cells
human CD30 [10] = target: T1, human CD30; test: flow cytometry, KM-H2 cells
human CD30 [11] = target: T1, human CD30; test: flow cytometry, DL-40 cells
human CD30 [12] = target: T1, human CD30; test: flow cytometry, L-1236 cells
human CD30 [13] = target: T1, human CD30; test: flow cytometry, SUP-M2 cells
human CD30 [14] = target: T1, human CD30; test: flow cytometry, SR-786 cells
human CD30 [15] = target: T1, human CD30; test: flow cytometry, NCEB-1 cells
[16] = target: T2, cynomolgus monkey (Macaca fascicularis) …; test: flow cytometry, HEK293 cells transfected with mfCD30
Method: Cells (3×10⁴ cells/well) were incubated in polystyrene 96-well round-bottom plates (Thermo Scientific, cat. no. 163320) with serial dilutions of antibodies (ranging from 0.0002 to 50 μg/mL in 4-fold dilution steps) in 50 μL staining buffer at 4° C. for 30 min. Experiments were performed in technical duplicate. After washing twice in staining buffer, cells were incubated in 50 μL secondary antibody at 4° C. for 30 min. As a secondary antibody, R-PE-conjugated goat-anti-human IgG (Jackson ImmunoResearch, UK; cat. no. 109⁻¹¹⁶-098) diluted 1:200 in staining buffer was used. Cells were washed twice in staining buffer, resuspended in 30 μL staining buffer containing 0.4% EDTA and the ToPro-3 viability marker (Invitrogen, cat. no. T3605) diluted 1:10,000. Cells were analyzed on an iQue Screener (Intellicyt Corporation, USA). Binding curves were analyzed using non-linear regression (sigmoidal dose-response with variable slope) using GraphPad Prism V9.0.0 software (GraphPad Software, San Diego, CA, USA).

B1: bsG1-b12-FEALxCD30-MDX060-FEAR (bispecific antibody, human IgG1, kappa)
heavy 1: QVQLVQSGAEVKKPGASVKVSCQASGYRFSNFVIHWVRQAPGQRFEWMGWINPYNGNKEFSAKFQDRVTFTADTSANTAYMELRSLRSADTAVYYCARVGPYSWDDSPQDNYYMDVWGKGTTVIVSSASTKGPSVFPLAPSSKSTSGGTAALGCLVKDYFPEPVTVSWNSGALTSGVHTFPAVLQSSGLYSLSSVVTVPSSSLGTQTYICNVNHKPSNTKVDKRVEPKSCDKTHTCPPCPAPEFEGGPSVFLFPPKPKDTLMISRTPEVTCVVVAVSHEDPEVKFNWYVDGVEVHNAKTKPREEQYNSTYRVVSVLTVLHQDWLNGKEYKCKVSNKALPAPIEKTISKAKGQPREPQVYTLPPSREEMTKNQVSLTCLVKGFYPSDIAVEWESNGQPENNYKTTPPVLDSDGSFLLYSKLTVDKSRWQQGNVFSCSVMHEALHNHYTQKSLSLSPG
light 1: EIVLTQSPGTLSLSPGERATFSCRSSHSIRSRRVAWYQHKPGQAPRLVIHGVSNRASGISDRFSGSGSGTDFTLTITRVEPEDFALYYCQVYGASSYTFGQGTKLERKRTVAAPSVFIFPPSDEQLKSGTASVVCLLNNFYPREAKVQWKVDNALQSGNSQESVTEQDSKDSTYSLSSTLTLSKADYEKHKVYACEVTHQGLSSPVTKSFNRGEC
heavy 2: QVQLQQWGAGLLKPSETLSLTCAVYGGSFSAYYWSWIRQPPGKGLEWIGDINHGGGTNYNPSLKSRVTISVDTSKNQFSLKLNSVTAADTAVYYCASLTAYWGQGSLVTVSSASTKGPSVFPLAPSSKSTSGGTAALGCLVKDYFPEPVTVSWNSGALTSGVHTFPAVLQSSGLYSLSSVVTVPSSSLGTQTYICNVNHKPSNTKVDKRVEPKSCDKTHTCPPCPAPEFEGGPSVFLFPPKPKDTLMISRTPEVTCVVVAVSHEDPEVKFNWYVDGVEVHNAKTKPREEQYNSTYRVVSVLTVLHQDWLNGKEYKCKVSNKALPAPIEKTISKAKGQPREPQVYTLPPSREEMTKNQVSLTCLVKGFYPSDIAVEWESNGQPENNYKTTPPVLDSDGSFFLYSRLTVDKSRWQQGNVFSCSVMHEALHNHYTQKSLSLSPG
light 2: DIQMTQSPTSLSASVGDRVTITCRASQGISSWLTWYQQKPEKAPKSLIYAASSLQSGVPSRFSGSGSGTDFTLTISSLQPEDFATYYCQQYDSYPITFGQGTRLEIKRTVAAPSVFIFPPSDEQLKSGTASVVCLLNNFYPREAKVQWKVDNALQSGNSQESVTEQDSKDSTYSLSSTLTLSKADYEKHKVYACEVTHQGLSSPVTKSFNRGEC
notes: Monovalent CD30 control
EC50 (read off the curve) (human CD30 [1]): ~0.2 µg/mL
EC50 (read off the curve) (human CD30 [2]): ~0.2 µg/mL
EC50 (read off the curve) (human CD30 [3]): ~0.3 µg/mL
EC50 (read off the curve) (human CD30 [4]): ~0.1 µg/mL
EC50 (read off the curve) (human CD30 [5]): ~0.4 µg/mL
binding result [6]: binds

B2: IgG1-CD30-MDX060-FERR (antibody)
heavy: B1 heavy 2 with G231R, A260D
light: B1 light 2
notes: Monospecific, bivalent parental antibody; also called IgG1-huCD30-MDX060-FERR
EC50 (read off the curve) (human CD30 [1]): ~0.1 µg/mL
EC50 (read off the curve) (human CD30 [7]): ~0.1 µg/mL
EC50 (read off the curve) (human CD30 [8]): ~0.07 µg/mL
EC50 (read off the curve) (human CD30 [2]): ~0.06 µg/mL
EC50 (read off the curve) (human CD30 [9]): ~0.3 µg/mL
EC50 (read off the curve) (human CD30 [10]): ~0.04 µg/mL
EC50 (read off the curve) (human CD30 [11]): ~0.07 µg/mL
EC50 (read off the curve) (human CD30 [4]): ~0.06 µg/mL
EC50 (read off the curve) (human CD30 [12]): ~0.04 µg/mL
EC50 (read off the curve) (human CD30 [13]): ~0.03 µg/mL
EC50 (read off the curve) (human CD30 [14]): ~0.1 µg/mL
EC50 (read off the curve) (human CD30 [15]): ~0.04 µg/mL

B3: bsG1-huCD3-FEALxb12-FERR (bispecific antibody, human IgG1, kappa, lambda)
heavy 1: not shown
light 1: not shown
heavy 2: B1 heavy 1 with G246R, A275D, L415F, K419R
light 2: B1 light 1
notes: Monovalent CD3 control antibody
binding result [16]: no binding (tested: 0.0002 to 50 µg/mL)
